The values below come from the DeepSol protein solubility set.

The data set in a line: soluble on expression in E. coli; label from the status in PepcDB or PDB records.
On to “MGSDKIHHHHHHMRGSSNIPLDWDKLRIFHAAAEAGSFTHAADKLHLSQSAISRQVSALEQDVGVKLFHRHARGLILTEQGELLYRTAHDVLLKLETVKMQLTETTEKPSGKLRVTTTVGLGQGWLTDKVQEFLQLYPDMSIQLILDNEELDVNMRHADCAIRLRQPQQSDLIQRKLFTVHMHVYAAPSYINRYGEPQTIEDLDNHRIISFGEPAPNYLLDVNWLEVAGRSSDNRRIPHLQINSQTSIKRACLLGIGVACMPDYIVGRDPGLIQLPINAEVPSFDTYFCYPDEMKNAAKLKVFRDFIVSKARNWNF”, for which the “soluble on expression in E. coli” value was “not soluble”. “MSLSNDTVSGPSMQPSFENGQRLISVRHAQIKRGEVVIVKAPDEPGALYIKRVIGMPGEKIVSKNNQIYINNKKLSQPWLTQGKKMIDAGSDTFYSATQNFTMKSLARSRQFQQYYTKSQLNYINKYNRIPKETYFVMGDHRSVSKDSRYIGTIKRKNVVGVVKLRYWPLNEFKIYEGHHHHHH”: the “soluble on expression in E. coli” value is given as “not soluble”.

For the sequence “MGSIEEVLLEERLIGYLDPGAEKVLARINRPSKIVSTSSCTGRITLIEGEAHWLRNGARVAYKTHHPISRSEVERVLRRGFTNLWLKVTGPILHLRVEGWQCAKSLLEAARRNGFKHSGVISIAEDSRLVIEIMSSQSMSVPLVMEGARIVGDDALDMLIEKANTILVESRIGLDTFSREVEELVECFAAALEHHHHHH”, the “soluble on expression in E. coli” value is “soluble”. For “MEGVVRLEVPTPEEGFVNITRKVEAALSGHTGLVYLFVPHTTCGLTVQEGADPTVAQDLLGRLAELAPRHRPQDRHLEGNSHAHLKSLLTGVHLLLLAEKGRLRLGRWQQVFLAEFDGPRVREVWVRLL” the value was “soluble”.

Turning to “DDEFLRGKRVLVVDDNFISRKVATGKLKKMGVSEVEQCDSGKEALRLVTEGLTQREEQGSVDKLPFDYIFMDCQMPEMDGYEATREIRKVEKSYGVRTPIIAVSGHDPGSEEARETIQAGMDAFLDKSLNQLANVIREIESKR”, the “soluble on expression in E. coli” value is listed as “soluble”. For “MHIIFDTSGFLSGLQLSLDRVYTTQEVINEIKDKYSRFNLEIAISSGKVIIMKPSTRSVEKVTKVLNLTKERKLSNTDISVIALALDLQPSIVFTDDLSVQNILKQLGIQFSSVKINKKVEKSFKFKYVCVNCKREFNIDHGECPYCGGKVVKRRIMELEHHHHHH” the value was “not soluble”. The result for “MTETIKCIGCGVEIQTEDKNEVGYAPASSLEKEQVICQRCFRLKHYNEIQDVSLTDDDFLRILNGIGKSDALVVKIVDIFDFNGSWLPGLHRFVGNNKVLLVGNKADLIPKSVKHDKVKHWMRYSAKQLGLKPEDVFLISAAKGQGIAELADAIEYYRGGKDVYVVGCTNVGKSTFINRMIKEFSDETENVITTSHFPGTTLDLIDIPLDEESSLYDTPGIINHHQMAHYVGKQSLKLITPTKEIKPMVFQLNEEQTLFFSGLARFDYVSGGRRAFTCHFSNRLTIHRTKLEKADELYKNHAGDLLSPPTPEELENMPELVKYEFNIREPKTDVVFSGLGWVTVNEPGAKIVAHVPKGVSVSLRKSLI” reads “soluble”; that for “MPLTPLHQVELRLMRTVIAICEAENIDYFLIGGSLLGAIRHHGFIPWDDDIDIGMRRHDYQRFIAVANHHLDPNKFFLQTGASDPDYALSYMKLLDVNTYIEERNNVNNAFKGVFVDIFPFDKIPDDEALRRSQMLHYKLADAAILLKLNYRFVKTPLRNLITKHTPQQLAEVNRYKLEREEYMRLYEQSDSRTYKNLASQYDYEKEIMTYQELTELTTVPFEDIQVKIPSAYDTILTRMYGDYMQLPPADKRVEKHLNKLIIDNHEILLEHHHHHH”, “not soluble”. For “MLITEIFHSIQGEGPYAGLPMLFVRTNVCNIRCEWCDTKYSFYGGKEIPLSELLGIVKEAKEGWVCFTGGEPLVQRDALAFVKSVVDMGKNVLIETNGTISIRNFVFSDRIFIDMDVKPPSAKVTKGFLMDNLRYLRKQDYLKIVIKDDTDLDFAIDFVDRYGEGLSFVFQPAWGSDIRRIADRIVGTGYNVRVLPQIHKIIYGDVPGV” the value was “not soluble”; for “EQMEGMLCRKQEMEAFGKKAANRSWQNVYCVLRRGSLGFYKDAKAASAGVPYHGEVPVSLARAQGSVAFDYRKRKHVFKLGLQDGKEYLFQAKDEAEMSSWLRVVNAAIA”, “soluble”. On to “MGSDKIHHHHHHMRVEDILDQLVMQSRDQDGAKYYISLINDMRIDRSVDPVKSIILEILSLCSDGRIDPWDVDLLKFAEIMNSFFGNSFIDFQFAGKAIADAWRVLRIKSDMSPKEQDRQMNDIGCEEPEDTDNFIPQNQVVIQLVPSVLTPQSRPVVLVDLIDEIRRKMYSSRLQKKKVDVHIEFDSSKLNPDRSEEMIEKTYRAIIESGKQKVFMSEIWGNTRRERAVFFLYSMFLFRDGRISLSQEEPNGDILIETNVI”, for which the “soluble on expression in E. coli” value is listed as “not soluble”.

As for “MGHHHHHHSHMTECRKSVPCGWERVVKQRLFGKTAGRFDVYFISPQGLKFRSKSSLANYLHKNGETSLKPEDFDFTVLSKRGIKSRYKDCS”, the “soluble on expression in E. coli” value is recorded as “not soluble”. The result for “MTGSQEDQPKIIIDQEQPKTLETEHQPEPSSSSPDQKKWGTHVMGAPAAPVAHPDNQQAAAWVAGDNQQTQYQPYVIYSPVEHPTTNNPLEPVIGMFHTWSRKAETVARNLWHNLKTGPSMSETAWGKVNLTAKAITKGGFESLFRQIFGTEPNETLKKTFACYLSTTTGPVAGTVYLSNARVAFCSDRPLYFTAPSGQESWSYYRVVVPLANVATVNPVVVKETPPEKYIQLTTVDGHDFWFMGFVNYEKATHHLLTSVSDFQTAHGSVSG” reads “soluble”; that for “MADEAQAPPAEGAPPAEGEAPPPAEGAEGAVEGGEAAPPAEPAEPIKHSYTLFYFNVKALAEPLRYLFAYGNQEYEDVRVTRDEWPALKPTMPMGQMPVLEVDGKRVHQSISMARFLAKTVGLCGATPWEDLQIDIVVDTINDFRLKIAVVSYEPEDEIKEKKLVTLNAEVIPFYLEKLEQTVKDNDGHLALGKLTWADVYFAGITDYMNYMVKRDLLEPYPALRGVVDAVNALEPIKAWIEKRPVTEV”, “soluble”.

On to “MIQKGCTPIEEGSDSEPQAETVPEEADYEAVPVEAYGLAMLRGMGWKPGKGIGNTFSQVVKPRVNSIRPKGLGLGANRMEAQDLASVGSHHPPRPDGDRENDKEGQPQGLMHGRAVVVLSGPYRGLYGKVEGLDPDNVRAMVRLAVGNRIVTVSEYCLRPVSQQEFDSHTSKPGHVSQTSTEQQNRATGTASSLKAAQNQEDSKRRQKGSEKKRKHSPDRQDGPVPKTEKAAPRNKHWLHRDLRVRFIDKLHKSGRYYNTKMTIEDVLSPDTCVCRTDEGRVLEDVREDMLETLIPKGEGHRVMVVLGPHAGKVGLLRSRDRAQSHALVQLRRENQVVELHYNAICQYMGPGDSDED”, for which the “soluble on expression in E. coli” value is listed as “soluble”.

“MSLKPAPRWPLHPAPREGEALSSWLNRVALCYHMEVSELLEHDLGHAQVDDLDTAPPLALLAMLSQRSGIEPDRLRCMSFAGWVPWLLDSLDDQIPDALETYAFQLSVLLPKLRRRTRSITSWRAWLPSQPIHRACPLCLNDPANQAVLLAWKLPLMLSCPLHGCWLESYWGVPGCQRRSNTDPWRRGEGHHHHHH”: the “soluble on expression in E. coli” value is “not soluble”.

In the case of “MEQRTRLALLKEIAEFLNEETEMYSMTQGALKYLIEGSNFTTGWIFFINSVGEHELVSHVALPQSLTADHCHYIKDGSCWCVKAFNQRRLMKASNIVNCSRINLASKAFPSQNDNITHHATVPLKSGQEQFGILNVASPNTEIYSDEDLELLESVAFQLGSAIKRIYLTDREKEAAKINERNRLARDLHDSVNQMLFSVKLTAHAAYGMSNESIAKQAFKTIEKTSQNAVNEMRALIWQLKPVGLEQGLIHALTAYSKLMHIQLNVNVEGLIDLSNEIEENIYRALQECINNVKKHADTNKMDLTLKQMNDILYIDVIDYGQGFEIDNVQIASSHGINNIKQRVKLLRGKVTFHSQPTKGTQIQFTIPIK”, the “soluble on expression in E. coli” value was “not soluble”. For “MISKGFSTQTERINILKAQILNAKPCVESERAILITESFKQTEGQPAILRRALALKHILENIPITIRDQELIVGSLTKEPRSSQVFPEFSNKWLQDELDRLNKRTGDAFQISEESKEKLKDVFEYWNGKTTSELATSYMTEETREAVNCDVFTVGNYYYNGVGHVSVDYGKVLRVGFNGIINEAKEQLEKNRSIDPDFIKKEKFLNSVIISCEAAITYVNRYAKKAKEIADNTSDAKRKAELNEIAKICSKVSGEGAKSFYEACQLFWFIHAIINIESNGHSISPARFDQYMYPYYENDKNITDKFAQELIDCIWIKLNDINKVRDEISTKHFGGYPMYQNLIVGGQNSEGKDATNKVSYMALEAAVHVKLPQPSLSVRIWNKTPDEFLLRAAELTREGLGLPAYYNDEVIIPALVSRGLTLEDARDYGIIGCVEPQKPGKTEGWHDSAFFNLARIVELTINSGFDKNKQIGPKTQNFEEMKSFDEFMKAYKAQMEYFVKHMCCADNCIDIAHAERAPLPFLSSMVDNCIGKGKSLQDGGAEYNFSGPQGVGVANIGDSLVAVKKIVFDENKITPSELKKTLNNDFKNSEEIQALLKNAPKFGNDIDEVDNLAREGALVYCREVNKYTNPRGGNFQPGLYPSSINVYFGSLTGATPDGRKSGQPLADGVSPSRGCDVSGPTAACNSVSKLDHFIASNGTLFNQKFHPSALKGDNGLMNLSSLIRSYFDQKGFHVQFNVIDKKILLAAQKNPEKYQDLIVRVAGYSAQFISLDKSIQNDIIARTEHVM” the value was “soluble”; for “MSLQQYEILLDSGTNELEIVKFGVGENAFGINVMKVREIIQPVEVTSVPHSHQHVEGMIKLRGEILPVISLFSFFGVEPEGSKDEKYIVTEFNKRKIVFHVGSVSQIHRVSWEAIEKPTSLNQGMERHLTGIIKLEDLMIFLPDYEKIIYDIESDSGVDTYNMHTEGFDERRTDKKLIIVEDSPLLMRLLQDELKEAGYNNIASFENGKEAYEYIMNLAENETDLSKQIDMIITDIEMPKMDGHRLTKLLKENPKSSDVPVMIFSSLITDDLRHRGEVVGADEQISKPEISDLIKKVDTYVIEGHHHHHH”, “soluble”. The result for “MGLFQIKPDIHYGANSLDILRTLEMEKVFLVTDENMVKLKVINKVTNILKSRGIEAKVYSDVKPDPTDEEIIKGMLELSAHDPDCIIALGGGSPIDACKSMIYFTNQIKRAMGQNKKPKFIAIPTTSGTGSEVTSYAVVTTKDKKIPLSDSEMLPDIAILNPEFIKTLSPSIIADTGMDVLTHAIEAYVSKSRNLFTNTFAIGAIKTVFADLVSNFENPQLEKERINLQIASCMAGVAFSNAGLGINHSIAHSLGARFHKPHGRLNAVIMSEVIQFNARNKNAAKYYREIVEALGFSPKEDVEGVEILAKAIKMRAAKMGIPNSLSELGIPKEQYFDEMEGIIDQIENDMCTGENPRRFSRIEMKQLLTDLY” reads “not soluble”; that for “AIALTTNASSKIFSKASTAELVGHTRKVHCLSWNPKGGLLGSGGVDCVARIWDVEKLQQKAELEGHTSSIEQLKWDPTANVFFVSASLDHKVLFWDLRARNSEPVASVETQGENINLAWSQDGVYCAVGDKDDNLSFIDVRKFDFFERFQFAEEVNEFKWSPSGPFFFMTLGKEVLVFRWPTMEQQLRLQVHADRCYCLEFDRSGRYFALGGADSIISLWETEYMLCTWTVDRLEYPIRTISFSHDGQFIAAGSEDSVIDISDILNGRQTYALGVKGATNVVAWHPSRHLLAYATEEEYSRDGVAIHLYGTISKDNI”, “soluble”; that for “MSLAIKMLAIDLDGTLLTDSKTILPGTYKALQEAKAAGIKIVLTSGRPLSGIKGYAEELGLSGSEEYAILFNGAVVQNLDGRVLISHDLDFGDFNTLLHMQRLSDVNLDFETPDRFYTLDKRISIRLQIDGAETKNQLWIQDRSDFKKDFTFAKAVYQCDDPDQVDRLWNRLPDWFFQSYAVVRSWPEVVEVGSLAASKGYAVSELASRLGLSNSEVMIFGDQGNDRSMFEIPDFKRVAMGNAIDEIKDLADYVTDTNERDGIAKALRKLVLEGHHHHHH”, “soluble”.
